Experimental data as given in the RNAGym collection of RNA variant scans (doi:10.7554/elife.80360).

B1: Hammerhead Ribozyme (parent)
chain: ACCGGAUGUGCUUUCCGGUCUGAUGAGUCCGUGAGGACGAAACAG

Variants of: B1
Test: self-cleavage, relative activity (ratio to wild type); higher = more cleavage; co-transcriptional
Work on G39A G45U yielded a self-cleavage of 0.372. Work on A6U G27C yielded a self-cleavage of 0.552. For U21G G35U, the self-cleavage was 0.413. For U32A A40U, the self-cleavage was 0.405. U24G A34C showed a self-cleavage of 0.823. U9C C15U showed a self-cleavage of 0.863. With U12A G25C the self-cleavage was 0.224. With C16A G39U the self-cleavage was 0.336. For C29G G39U, the self-cleavage was 0.334. G10A G31U showed a self-cleavage of 0.938. In the case of A34C A37G, the self-cleavage is reported as 0.588. With U14G G31U the self-cleavage was 0.51. Variant C11U A44C has a self-cleavage of 0.474. Work on G31A G36C yielded a self-cleavage of 0.671. With G31U A44C the self-cleavage was 0.564. For U32G A37C, the self-cleavage was 0.431. Work on U32G A37U yielded a self-cleavage of 0.46. With A26G G27U the self-cleavage was 0.322. With U32C G36A the self-cleavage was 0.718. For U32A C43G, the self-cleavage was 0.484. With C16U C30U the self-cleavage was 1.02. Work on G17A U24G yielded a self-cleavage of 0.592. U13C A34G gave a self-cleavage of 0.776. G27C A40U gave a self-cleavage of 0.356. Work on U24C A44G yielded a self-cleavage of 1.18. G8U G22C showed a self-cleavage of 0.354. Work on G10A G22C yielded a self-cleavage of 0.32. Work on G25A G33C yielded a self-cleavage of 0.438. For G25A G33U, the self-cleavage was 0.45. G4U U14A gave a self-cleavage of 0.469. Variant G4U G5C has a self-cleavage of 0.352. For C2U G45U, the self-cleavage was 0.835. With U13G U19A the self-cleavage was 0.301. A26C A40G showed a self-cleavage of 0.285. With C11G U28A the self-cleavage was 0.809. In the case of A23C C38U, the self-cleavage is reported as 0.316. G5U G27C showed a self-cleavage of 0.491. For U14C A23C, the self-cleavage was 0.373. Work on U7G A42C yielded a self-cleavage of 0.271. G35A G45C showed a self-cleavage of 0.437. Work on C3A U32C yielded a self-cleavage of 0.803. For A1G G22C, the self-cleavage was 0.376. In the case of G4U G33U, the self-cleavage is reported as 0.576. Work on G4U G33C yielded a self-cleavage of 0.416. Variant G8U A23G has a self-cleavage of 0.363. Variant U13A U19G has a self-cleavage of 0.425. G10C G22A showed a self-cleavage of 0.338. Variant C15U U24C has a self-cleavage of 0.812. With G33C G39A the self-cleavage was 0.332. In the case of G10A U14A, the self-cleavage is reported as 1.21. With G27C G31U the self-cleavage was 0.772. With U12C A41G the self-cleavage was 0.358. Variant C29U C30G has a self-cleavage of 0.546. Work on G10A G36C yielded a self-cleavage of 0.843. With U7G A26C the self-cleavage was 0.265. U13C A23G showed a self-cleavage of 0.419. A26U A42C showed a self-cleavage of 0.293. Work on A34C G45A yielded a self-cleavage of 0.524. For G4A C30U, the self-cleavage was 0.526. Work on A26C A37G yielded a self-cleavage of 0.671. C11A U19C gave a self-cleavage of 0.603. With U7C G18U the self-cleavage was 0.61. A6U U9G gave a self-cleavage of 0.641. A6U G10A showed a self-cleavage of 0.75. Variant G10C G31U has a self-cleavage of 1.19. Work on C3U G27C yielded a self-cleavage of 0.599. With U32G G39A the self-cleavage was 0.362. C3U C15G showed a self-cleavage of 0.382. G17C A34G showed a self-cleavage of 0.436. Variant G5C A41U has a self-cleavage of 0.326. In the case of G31U A40U, the self-cleavage is reported as 0.399. In the case of C2U, the self-cleavage is reported as 1.17. For G4U C15U, the self-cleavage was 0.523. Work on G27A G45C yielded a self-cleavage of 0.378. Work on U19A U21A yielded a self-cleavage of 0.292. Variant G27U G39C has a self-cleavage of 0.314. With C3A U13G the self-cleavage was 0.847. Work on C2G C15U yielded a self-cleavage of 0.304. Variant C29A A41G has a self-cleavage of 0.339. Work on U12A C43A yielded a self-cleavage of 0.33. Variant U13C G31C has a self-cleavage of 1.13. Variant A40C A41C has a self-cleavage of 0.385. For G4U A41G, the self-cleavage was 0.263. C20A G27U gave a self-cleavage of 0.302. With A26U A44C the self-cleavage was 0.477. A1G C15G showed a self-cleavage of 0.996. With U9C C29G the self-cleavage was 0.601. U19G A41G showed a self-cleavage of 0.345. Work on A26C C38U yielded a self-cleavage of 0.503. Work on C11U G17A yielded a self-cleavage of 0.475. In the case of G4A G36C, the self-cleavage is reported as 0.343. In the case of G22U C30A, the self-cleavage is reported as 0.296. With U24A U32G the self-cleavage was 0.644. C30A C38A gave a self-cleavage of 0.386. Work on G10C A41C yielded a self-cleavage of 0.299. A1C C20G gave a self-cleavage of 0.354. Variant G22C U28C has a self-cleavage of 0.298. C3U A41U showed a self-cleavage of 0.378. G10A G18C gave a self-cleavage of 0.615. With A1C A41C the self-cleavage was 0.372. Work on C20U yielded a self-cleavage of 0.697. With A23C A41C the self-cleavage was 0.313. G4U U21G showed a self-cleavage of 0.325. G4U U21C gave a self-cleavage of 0.352. For G4C C15A, the self-cleavage was 0.524. For G35U G36C, the self-cleavage was 0.476. For G35A A44G, the self-cleavage was 0.837. In the case of C3G U12C, the self-cleavage is reported as 0.394. Variant U12C G17C has a self-cleavage of 0.446. For U9G U19A, the self-cleavage was 0.376. U24A A37G showed a self-cleavage of 1.09. Work on U9A G27U yielded a self-cleavage of 0.585. For U9A G27C, the self-cleavage was 0.609. In the case of G8C G25A, the self-cleavage is reported as 0.284. In the case of C11U C15G, the self-cleavage is reported as 1.04. Variant G25A C43A has a self-cleavage of 0.294. For A6G G22A, the self-cleavage was 0.239. With G4U C20A the self-cleavage was 0.294. Work on G5U A6U yielded a self-cleavage of 0.63. C16A G27C gave a self-cleavage of 0.571. For U9A C30A, the self-cleavage was 1. Work on U14G C29A yielded a self-cleavage of 0.677. For U7A C11A, the self-cleavage was 1.55. Work on A6G A37C yielded a self-cleavage of 0.656. C15G U28A showed a self-cleavage of 0.389. Variant U21G A44G has a self-cleavage of 0.697. For U12C U14A, the self-cleavage was 0.832. Variant G4C A42G has a self-cleavage of 0.359. C30G A42G showed a self-cleavage of 0.316. U14G A40C showed a self-cleavage of 0.52. C29A G31C showed a self-cleavage of 0.683. G8U A37G showed a self-cleavage of 0.906. With A6U C43U the self-cleavage was 0.368. Work on G4C G22A yielded a self-cleavage of 0.297. With A23C G39U the self-cleavage was 0.371. A1U U32A gave a self-cleavage of 0.692. G35C A42C gave a self-cleavage of 0.283. G33U A37G gave a self-cleavage of 1.04. In the case of G5U U13A, the self-cleavage is reported as 1.37. With U7C C29G the self-cleavage was 0.514. With U7C C29A the self-cleavage was 0.685. With U7C A41G the self-cleavage was 0.322. With C3G A23C the self-cleavage was 0.328. G5U A23G gave a self-cleavage of 0.287. Work on G35C G45A yielded a self-cleavage of 0.385. A23C showed a self-cleavage of 0.547. G17C G27U showed a self-cleavage of 0.349. C3G A6C showed a self-cleavage of 0.361. C15G G17A gave a self-cleavage of 0.322. C15G G17C gave a self-cleavage of 0.323. For G25A A40C, the self-cleavage was 0.368. For C11A G27C, the self-cleavage was 0.724. In the case of C3A G25C, the self-cleavage is reported as 0.344. For A26G G35U, the self-cleavage was 0.283. U14A G33C gave a self-cleavage of 0.987. For U14A U21G, the self-cleavage was 0.595. A6U A34G showed a self-cleavage of 0.786. With U21C C38G the self-cleavage was 0.659. In the case of C2A G4A, the self-cleavage is reported as 0.322. For G33A C43G, the self-cleavage was 0.371. In the case of A1U G35U, the self-cleavage is reported as 0.451. Variant U21A A44G has a self-cleavage of 0.932. For U21A G39A, the self-cleavage was 0.311. Work on U32C G35U yielded a self-cleavage of 0.795. In the case of G5A G22U, the self-cleavage is reported as 0.325. With U19A A42C the self-cleavage was 0.369. Work on U19G A26C yielded a self-cleavage of 0.323.
